These results are taken from ChEMBL document CHEMBL2074044, “Two distinct mechanisms for bilirubin glucuronide transport by rat bile canalicular membrane vesicles. Demonstration of defective ATP-dependent transport in rats (TR-) with inherited conjugated hyperbilirubinemia” (J Clin Invest, 1992).

Substrate in this data set: C=CC1=C(C)/C(=C/c2[nH]c(Cc3[nH]c(/C=C4\NC(=O)C(C)=C4C=C)c(C)c3CCC(=O)O[C@@H]3O[C@@H](C(=O)O)[C@H](O)[C@@H](O)[C@@H]3O)c(CCC(=O)O[C@@H]3O[C@H](C(=O)O)[C@H](O)[C@H](O)[C@@H]3O)c2C)NC1=O
Description: TP_TRANSPORTER: uptake in bile canalicular membranes from Wistar rat. The data set is classed as functional, cell membranes, Bile canalicular membrane.

B1: ATP-binding cassette sub-family C member 2 (Rattus norvegicus) (protein)
chain: MDKFCNSTFWDLSLLESPEADLPLCFEQTVLVWIPLGFLWLLAPWQLYSVYRSRTKRSSITKFYLAKQVFVVFLLILAAIDLSLALTEDTGQATVPPVRYTNPILYLCTWLLVLAVQHSRQWCVRKNSWFLSLFWILSVLCGVFQFQTLIRALLKDSKSNMAYSYLFFVSYGFQIVLLILTAFSGPSDSTQTPSVTASFLSSITFSWYDRTVLKGYKHPLTLEDVWDIDEGFKTRSVTSKFEAAMTKDLQKARQAFQRRLQKSQRKPEATLHGLNKKQSQSQDVLVLEEAKKKSEKTTKDYPKSWLIKSLFKTFHVVILKSFILKLIHDLLVFLNPQLLKLLIGFVKSSNSYVWFGYICAILMFAVTLIQSFCLQSYFQHCFVLGMCVRTTVMSSIYKKALTLSNLARKQYTIGETVNLMSVDSQKLMDATNYMQLVWSSVIQITLSIFFLWRELGPSILAGVGVMVLLIPVNGVLATKIRNIQVQNMKNKDKRLKIMNEILSGIKILKYFAWEPSFQEQVQGIRKKELKNLLRFGQLQSLLIFILQITPILVSVVTFSVYVLVDSANVLNAEKAFTSITLFNILRFPLSMLPMVTSSILQASVSVDRLERYLGGDDLDTSAIRRVSNFDKAVKFSEASFTWDPDLEATIQDVNLDIKPGQLVAVVGTVGSGKSSLVSAMLGEMENVHGHITIQGSTAYVPQQSWIQNGTIKDNILFGSEYNEKKYQQVLKACALLPDLEILPGGDMAEIGEKGINLSGGQKQRVSLARAAYQDADIYILDDPLSAVDAHVGKHIFNKVVGPNGLLAGKTRIFVTHGIHFLPQVDEIVVLGKGTILEKGSYRDLLDKKGVFARNWKTFMKHSGPEGEATVNNDSEAEDDDDGLIPTMEEIPEDAASLAMRRENSLRRTLSRSSRSSSRRGKSLKNSLKIKNVNVLKEKEKEVEGQKLIKKEFVETGKVKFSIYLKYLQAVGWWSILFIILFYGLNNVAFIGSNLWLSAWTSDSDNLNGTNNSSSHRDMRIGVFGALGLAQGICLLISTLWSIYACRNASKALHGQLLTNILRAPMRFFDTTPTGRIVNRFSGDISTVDDLLPQTLRSWMMCFFGIAGTLVMICMATPVFAIIIIPLSILYISVQVFYVATSRQLRRLDSVTKSPIYSHFSETVTGLPIIRAFEHQQRFLAWNEKQIDINQKCVFSWITSNRWLAIRLELVGNLVVFCSALLLVIYRKTLTGDVVGFVLSNALNITQTLNWLVRMTSEAETNIVAVERISEYINVENEAPWVTDKRPPADWPRHGEIQFNNYQVRYRPELDLVLKGITCNIKSGEKVGVVGRTGAGKSSLTNCLFRILESAGGQIIIDGIDVASIGLHDLRERLTIIPQDPILFSGSLRMNLDPFNKYSDEEVWRALELAHLRSFVSGLQLGLLSEVTEGGDNLSIGQRQLLCLGRAVLRKSKILVLDEATAAVDLETDSLIQTTIRKEFSQCTVITIAHRLHTIMDSDKIMVLDNGKIVEYGSPEELLSNRGSFYLMAKEAGIENVNHTEL
On to B1, for which the Michaelis constant (Km) (as a rule, the concentration of substrate that gives half-maximal velocity) is 71 µM.
